Data as given in paper PMC10786891, “Massively parallel profiling of RNA-targeting CRISPR-Cas13d”.

T1: EsCas13d, nuclease-dead (Eubacterium siraeum, UniProt B0MS50, R295A;H300A;R849A;H854A)
T1 sequence: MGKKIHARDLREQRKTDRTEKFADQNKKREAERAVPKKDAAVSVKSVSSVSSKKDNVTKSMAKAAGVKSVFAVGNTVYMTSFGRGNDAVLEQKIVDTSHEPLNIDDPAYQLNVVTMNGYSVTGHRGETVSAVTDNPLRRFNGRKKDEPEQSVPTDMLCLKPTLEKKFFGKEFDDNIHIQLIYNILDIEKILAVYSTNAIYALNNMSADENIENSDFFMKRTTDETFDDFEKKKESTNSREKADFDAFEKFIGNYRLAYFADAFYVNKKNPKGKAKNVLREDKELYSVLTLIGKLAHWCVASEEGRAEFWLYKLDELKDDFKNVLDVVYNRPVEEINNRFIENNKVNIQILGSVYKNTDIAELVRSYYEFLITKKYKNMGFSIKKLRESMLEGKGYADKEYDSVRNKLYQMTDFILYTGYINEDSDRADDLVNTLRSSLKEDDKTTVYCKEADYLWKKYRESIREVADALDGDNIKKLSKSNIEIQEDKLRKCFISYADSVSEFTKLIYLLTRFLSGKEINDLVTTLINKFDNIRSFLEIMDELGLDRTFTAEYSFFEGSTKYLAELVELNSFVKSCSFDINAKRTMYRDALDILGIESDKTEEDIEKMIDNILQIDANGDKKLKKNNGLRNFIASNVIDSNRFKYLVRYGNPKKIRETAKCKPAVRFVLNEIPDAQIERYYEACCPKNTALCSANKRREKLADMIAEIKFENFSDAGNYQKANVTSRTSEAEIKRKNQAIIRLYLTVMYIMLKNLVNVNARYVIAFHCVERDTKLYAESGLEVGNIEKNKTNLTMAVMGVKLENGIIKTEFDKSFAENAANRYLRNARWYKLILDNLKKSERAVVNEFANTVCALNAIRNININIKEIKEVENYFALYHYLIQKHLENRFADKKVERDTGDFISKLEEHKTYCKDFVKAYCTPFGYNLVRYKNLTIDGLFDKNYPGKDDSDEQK

B1: target 1 MT 5'PFS CCC 3'PFS UGC (mixed)
RNA 1: CACCCGUGCAAAAAUGCAGGGGUCUAAAACUGAGCGGAUAACCUCUCUAUGG
RNA 2: GGGAAUGGAUCCACAUCUACGAAUUCCCCCCAUAGAGAGGUUAUCCGCUCAUGCAGAUCGGAAGAGCACACGU
B2: target 1 MT 5'PFS AAA 3'PFS CGA (mixed)
RNA 1: CACCCGUGCAAAAAUGCAGGGGUCUAAAACUGAGCGGAUAACCUCUCUAUGG
RNA 2: GGGAAUGGAUCCACAUCUACGAAUUCAAACCAUAGAGAGGUUAUCCGCUCACGAAGAUCGGAAGAGCACACGU
B3: target 1 MT 5'PFS AAA 3'PFS CGU (mixed)
RNA 1: CACCCGUGCAAAAAUGCAGGGGUCUAAAACUGAGCGGAUAACCUCUCUAUGG
RNA 2: GGGAAUGGAUCCACAUCUACGAAUUCAAACCAUAGAGAGGUUAUCCGCUCACGUAGAUCGGAAGAGCACACGU
B4: target 1 MT 5'PFS UUA 3'PFS UCG (mixed)
RNA 1: CACCCGUGCAAAAAUGCAGGGGUCUAAAACUGAGCGGAUAACCUCUCUAUGG
RNA 2: GGGAAUGGAUCCACAUCUACGAAUUCUUACCAUAGAGAGGUUAUCCGCUCAUCGAGAUCGGAAGAGCACACGU
B5: target 1 MT 5'PFS CCG 3'PFS AAA (mixed)
RNA 1: CACCCGUGCAAAAAUGCAGGGGUCUAAAACUGAGCGGAUAACCUCUCUAUGG
RNA 2: GGGAAUGGAUCCACAUCUACGAAUUCCCGCCAUAGAGAGGUUAUCCGCUCAAAAAGAUCGGAAGAGCACACGU
B6: target 1 MT 5'PFS UAA 3'PFS UUU (mixed)
RNA 1: CACCCGUGCAAAAAUGCAGGGGUCUAAAACUGAGCGGAUAACCUCUCUAUGG
RNA 2: GGGAAUGGAUCCACAUCUACGAAUUCUAACCAUAGAGAGGUUAUCCGCUCAUUUAGAUCGGAAGAGCACACGU
B7: target 1 MT 5'PFS UCA 3'PFS AUC (mixed)
RNA 1: CACCCGUGCAAAAAUGCAGGGGUCUAAAACUGAGCGGAUAACCUCUCUAUGG
RNA 2: GGGAAUGGAUCCACAUCUACGAAUUCUCACCAUAGAGAGGUUAUCCGCUCAAUCAGAUCGGAAGAGCACACGU
B8: target 1 MT 5'PFS GGG 3'PFS GUG (mixed)
RNA 1: CACCCGUGCAAAAAUGCAGGGGUCUAAAACUGAGCGGAUAACCUCUCUAUGG
RNA 2: GGGAAUGGAUCCACAUCUACGAAUUCGGGCCAUAGAGAGGUUAUCCGCUCAGUGAGAUCGGAAGAGCACACGU
B9: target 1 C2U,U11G (mixed)
RNA 1: CACCCGUGCAAAAAUGCAGGGGUCUAAAACUGAGCGGAUAACCUCUCUAUGG
RNA 2: GGGAAUGGAUCCACAUCUACGAAUUCGUACCAUAGAGAGGGUAUCCGCUUACCGAGAUCGGAAGAGCACACGU
B10: target 1 MT 5'PFS UAA 3'PFS UUA (mixed)
RNA 1: CACCCGUGCAAAAAUGCAGGGGUCUAAAACUGAGCGGAUAACCUCUCUAUGG
RNA 2: GGGAAUGGAUCCACAUCUACGAAUUCUAACCAUAGAGAGGUUAUCCGCUCAUUAAGAUCGGAAGAGCACACGU
B11: target 1 MT 5'PFS UAA 3'PFS UUG (mixed)
RNA 1: CACCCGUGCAAAAAUGCAGGGGUCUAAAACUGAGCGGAUAACCUCUCUAUGG
RNA 2: GGGAAUGGAUCCACAUCUACGAAUUCUAACCAUAGAGAGGUUAUCCGCUCAUUGAGAUCGGAAGAGCACACGU
B12: target 1 MT 5'PFS UAA 3'PFS UUC (mixed)
RNA 1: CACCCGUGCAAAAAUGCAGGGGUCUAAAACUGAGCGGAUAACCUCUCUAUGG
RNA 2: GGGAAUGGAUCCACAUCUACGAAUUCUAACCAUAGAGAGGUUAUCCGCUCAUUCAGAUCGGAAGAGCACACGU
B13: target 1 MT 5'PFS GGA 3'PFS AAA (mixed)
RNA 1: CACCCGUGCAAAAAUGCAGGGGUCUAAAACUGAGCGGAUAACCUCUCUAUGG
RNA 2: GGGAAUGGAUCCACAUCUACGAAUUCGGACCAUAGAGAGGUUAUCCGCUCAAAAAGAUCGGAAGAGCACACGU
B14: target 1 MT 5'PFS GAC 3'PFS UGA (mixed)
RNA 1: CACCCGUGCAAAAAUGCAGGGGUCUAAAACUGAGCGGAUAACCUCUCUAUGG
RNA 2: GGGAAUGGAUCCACAUCUACGAAUUCGACCCAUAGAGAGGUUAUCCGCUCAUGAAGAUCGGAAGAGCACACGU
B15: target 1 MT 5'PFS CAU 3'PFS UUA (mixed)
RNA 1: CACCCGUGCAAAAAUGCAGGGGUCUAAAACUGAGCGGAUAACCUCUCUAUGG
RNA 2: GGGAAUGGAUCCACAUCUACGAAUUCCAUCCAUAGAGAGGUUAUCCGCUCAUUAAGAUCGGAAGAGCACACGU
B16: target 1 MT 5'PFS GGA 3'PFS AAU (mixed)
RNA 1: CACCCGUGCAAAAAUGCAGGGGUCUAAAACUGAGCGGAUAACCUCUCUAUGG
RNA 2: GGGAAUGGAUCCACAUCUACGAAUUCGGACCAUAGAGAGGUUAUCCGCUCAAAUAGAUCGGAAGAGCACACGU
B17: target 1 MT 5'PFS UGU 3'PFS UAA (mixed)
RNA 1: CACCCGUGCAAAAAUGCAGGGGUCUAAAACUGAGCGGAUAACCUCUCUAUGG
RNA 2: GGGAAUGGAUCCACAUCUACGAAUUCUGUCCAUAGAGAGGUUAUCCGCUCAUAAAGAUCGGAAGAGCACACGU
B18: target 1 MT 5'PFS AAC 3'PFS AGG (mixed)
RNA 1: CACCCGUGCAAAAAUGCAGGGGUCUAAAACUGAGCGGAUAACCUCUCUAUGG
RNA 2: GGGAAUGGAUCCACAUCUACGAAUUCAACCCAUAGAGAGGUUAUCCGCUCAAGGAGAUCGGAAGAGCACACGU
B19: target 1 MT 5'PFS UUG 3'PFS UCG (mixed)
RNA 1: CACCCGUGCAAAAAUGCAGGGGUCUAAAACUGAGCGGAUAACCUCUCUAUGG
RNA 2: GGGAAUGGAUCCACAUCUACGAAUUCUUGCCAUAGAGAGGUUAUCCGCUCAUCGAGAUCGGAAGAGCACACGU
B20: target 1 MT 5'PFS AAC 3'PFS AGA (mixed)
RNA 1: CACCCGUGCAAAAAUGCAGGGGUCUAAAACUGAGCGGAUAACCUCUCUAUGG
RNA 2: GGGAAUGGAUCCACAUCUACGAAUUCAACCCAUAGAGAGGUUAUCCGCUCAAGAAGAUCGGAAGAGCACACGU
B21: target 1 MT 5'PFS GGA 3'PFS AAG (mixed)
RNA 1: CACCCGUGCAAAAAUGCAGGGGUCUAAAACUGAGCGGAUAACCUCUCUAUGG
RNA 2: GGGAAUGGAUCCACAUCUACGAAUUCGGACCAUAGAGAGGUUAUCCGCUCAAAGAGAUCGGAAGAGCACACGU
B22: target 1 MT 5'PFS GGA 3'PFS CCG (mixed)
RNA 1: CACCCGUGCAAAAAUGCAGGGGUCUAAAACUGAGCGGAUAACCUCUCUAUGG
RNA 2: GGGAAUGGAUCCACAUCUACGAAUUCGGACCAUAGAGAGGUUAUCCGCUCACCGAGAUCGGAAGAGCACACGU
B23: target 1 insG 3' of 14,insA 3' of 7 (mixed)
RNA 1: CACCCGUGCAAAAAUGCAGGGGUCUAAAACUGAGCGGAUAACCUCUCUAUGG
RNA 2: GGGAAUGGAUCCACAUCUACGAAUUCGUACCAUAGAGAGGGUUAUCACGCUCACCGAGAUCGGAAGAGCACACGU
B24: target 1 MT 5'PFS GGA 3'PFS AAC (mixed)
RNA 1: CACCCGUGCAAAAAUGCAGGGGUCUAAAACUGAGCGGAUAACCUCUCUAUGG
RNA 2: GGGAAUGGAUCCACAUCUACGAAUUCGGACCAUAGAGAGGUUAUCCGCUCAAACAGAUCGGAAGAGCACACGU
B25: target 1 MT 5'PFS CUC 3'PFS CAU (mixed)
RNA 1: CACCCGUGCAAAAAUGCAGGGGUCUAAAACUGAGCGGAUAACCUCUCUAUGG
RNA 2: GGGAAUGGAUCCACAUCUACGAAUUCCUCCCAUAGAGAGGUUAUCCGCUCACAUAGAUCGGAAGAGCACACGU
B26: target 1 C2U,A9G (mixed)
RNA 1: CACCCGUGCAAAAAUGCAGGGGUCUAAAACUGAGCGGAUAACCUCUCUAUGG
RNA 2: GGGAAUGGAUCCACAUCUACGAAUUCGUACCAUAGAGAGGUUGUCCGCUUACCGAGAUCGGAAGAGCACACGU
B27: target 1 MT 5'PFS UUG 3'PFS UCU (mixed)
RNA 1: CACCCGUGCAAAAAUGCAGGGGUCUAAAACUGAGCGGAUAACCUCUCUAUGG
RNA 2: GGGAAUGGAUCCACAUCUACGAAUUCUUGCCAUAGAGAGGUUAUCCGCUCAUCUAGAUCGGAAGAGCACACGU
B28: target 1 MT 5'PFS UUA 3'PFS UCA (mixed)
RNA 1: CACCCGUGCAAAAAUGCAGGGGUCUAAAACUGAGCGGAUAACCUCUCUAUGG
RNA 2: GGGAAUGGAUCCACAUCUACGAAUUCUUACCAUAGAGAGGUUAUCCGCUCAUCAAGAUCGGAAGAGCACACGU

What follows are binders tested against T1, EsCas13d, nuclease-dead (assay: crRNA (strand 1, pre-loaded); Mg2+; 40 mM Tris-HCl pH 7.5, 150 mM NaCl, 6 mM MgCl2, 1 mM DTT, 0.1% Tween-20, 0.2 mg/ml BSA; 25 C; 10 min per concentration, then washed). Conditions: tags: His6-TwinStrep-SUMO cleaved; N-terminal SNAP kept (SNAP-Surface 488); label: 3' end held by stalled T7 RNA polymerase.
Binder B1 has a Kd of 8.55 ± 3.25 nM. Work on B2 yielded a Kd of 30 ± 14.5 nM. In the case of B3, the Kd is reported as 35 ± 16 nM. Work on B4 yielded a Kd of 13.6 ± 2.85 nM. B5 showed a Kd of 27.5 ± 8 nM. With B6 the Kd was 49 ± 14 nM. With B7 the Kd was ~11 nM. Binder B8 has a Kd of 7.25 ± 0.95 nM. Work on B9 yielded a Kd of 18.4 ± 1 nM. Work on B10 yielded a Kd of 28.5 ± 6.5 nM. B11 was tested, and the Kd was 16.8 ± 2.95 nM. B12 gave a Kd of 22.9 ± 4.25 nM. In the case of B13, the Kd is reported as 41 ± 10 nM. B14 was tested, and the Kd was ~27.2 nM. B15 showed a Kd of ~70 nM. Binder B16 has a Kd of 21 ± 5.5 nM. B17 showed a Kd of 56 ± 17 nM. B18 was tested, and the Kd was 59 ± 19 nM. With B19 the Kd was 58.5 ± 22.5 nM. B20 showed a Kd of ~27 nM. B21 was tested, and the Kd was 24.1 ± 3.95 nM. With B22 the Kd was 28.5 ± 7.5 nM. Work on B23 yielded a Kd of 6.2 ± 0.5 nM. For B24, the Kd was 24.5 ± 5 nM. For B25, the Kd was ~55 nM. B26 gave a Kd of 15.4 ± 1.4 nM. B27 was tested, and the Kd was 20.9 ± 3.9 nM. Binder B28 has a Kd of 25 ± 6.5 nM.
